Measured values published in PMC11103113, “Evidence for dual targeting control of Arabidopsis 6-phosphogluconate dehydrogenase isoforms by N-terminal phosphorylation” (Journal of Experimental Botany, 2024).
Substitutions are numbered along the chain they refer to. Names may count otherwise. One block for each binder: values may come before it.

Tests used:
[1] = molecular target: PGD2_new medial C420S (Arabidopsis thaliana) (UniProt Q9FWA3)
[2] = molecular target: the molecule itself; assay: semi-native SDS-PAGE with anti-His immunoblot; His-PGD2 variants from cleared E. coli BL21minus extracts, sample buffer without SDS and DTT and without boiling; monomer to dimer

- 6PGDH activity upon GFP-based pull-down from protoplasts, relative to the corresponding wild-type version (% of the corresponding wild-type version) [1]: 80
B1: PGD2_new medial C420S (enzyme)
chain: MAVQPTRIGLAGLAVMGQNLALNIAEKGFPISVYNRTTSKVDETVERAKKEGNLPLYGFHDPESFVKSIQKPRVIIMLVKAGSPVDQTIKTLSAYLEKGDCIVDGGNEWYENTERREKAVAENGFLYLGMGVSGGEEGARNGPSMMPGGSYEAYKNIEDIVLKVAAQVRDSGPCVTYIGKGGSGNFVKMVHNGIEYGDMQLIAEAYDVLKSVGKLSNEELHSVFSDWNKGELESFLVEITADIFGIKDDKGDGHLVDKVLDKTGMKGTGKWTVQQAAELSVPAPTIESSLDARFLSGLKDERVQAAKVFKAGGFGDILTDQKVDKKQLVDDVRKALYASKICSYAQGMNLIRAKSIEKGWGLKLGELARIWKGGCIIRAIFLDRIKQAYDRNAELANLLVDPEFAKEIIERQSAWRRVVSLAINSGISTPGMSASLAYFDSYRRERLPANLVQAQRDYFGAHTYERTDVEGSFHTEWFKIARQSKI

B2: His-PGD2 wild type (full-length protein) (enzyme, Arabidopsis thaliana, UniProt Q9FWA3 1-486, looked up)
chain: B1 chain with S420C
notes: Arabidopsis thaliana PGD2 (At3g02360), full-length protein, cDNA cloned in pET16b; Cloning analogous to Hölscher et al. (2016); Found as monomer and dimer on the semi-native gel; source: E. coli BL21minus (G6PDH-deficient), in cleared extract
- stoichiometry N [2]: 2
